Reference: patent publication US20040259176A1, “Structural basis for the guanine nucleotide-binding activity of tissue transglutaminase and its regulation of transamidation activity” (priority 2003, published 2004)

Columns and labels:
Format in all cases: cell-based, human
SKBR3 cells [1] = experiment: Cell growth assay; settings: low serum medium, 5 μM RA or 100 ng/ml EGF, up to 6 days; FIG. 9C
Protocol: (§1) Cells were grown for 2 days in complete media and subsequently placed in low serum. The following day, cells were left untreated (0), treated with 5 μM RA (RA), 100 ng/ml EGF (EGF), or co-treated with 5 μM RA and 100 ng/ml EGF (RA/EGF) for 2 days and then lysed. In FIG. 9A, the cell extracts were used to determine TG GTP-binding activities (GTP-TGase) using an affinity-labeling assay with radioactive GTP as outlined in Example 11. Western blot analysis using TG and actin antibodies was performed to assess the expression levels of each of these proteins (TGase and actin). In FIG. 9B, the same cell lysates were assayed for TG transamidation activities as determined by the incorporation of 5-(biotin-amido) pentylamine into proteins as described in Example 12. The experiments were conducted in triplicate, quantitated, and the values from each experiment were averaged together and plotted. In FIG. 9C, SKBR3 cells were seeded at 1×10^5 cells/well and grown in low serum medium +/−5 μM RA and +/−100 ng/ml EGF for the times indicated and then counted. The results from three independent growth assays were averaged together and plotted.
Cells were seeded at 1×10^5 cells/well and grown in medium containing 0.5% serum +/−5 μM RA and +/−100 ng/ml EGF. Every 2 days the medium was changed. At 0, 2, 4, and 6 days of treatment, the cells were collected and counted.

[2] = system: tissue transglutaminase (TG); experiment: TG expression by Western blot in SKBR3 cells; settings: 5 μM RA or 100 ng/ml EGF for 2 days, FIG. 9A
Protocol: Cells were grown for 2 days in complete media and subsequently placed in low serum. The following day, cells were left untreated (0), treated with 5 μM RA (RA), 100 ng/ml EGF (EGF), or co-treated with 5 μM RA and 100 ng/ml EGF (RA/EGF) for 2 days and then lysed. In FIG. 9A, the cell extracts were used to determine TG GTP-binding activities (GTP-TGase) using an affinity-labeling assay with radioactive GTP as outlined in Example 11. Western blot analysis using TG and actin antibodies was performed to assess the expression levels of each of these proteins (TGase and actin). In FIG. 9B, the same cell lysates were assayed for TG transamidation activities as determined by the incorporation of 5-(biotin-amido) pentylamine into proteins as described in Example 12. The experiments were conducted in triplicate, quantitated, and the values from each experiment were averaged together and plotted. In FIG. 9C, SKBR3 cells were seeded at 1×10^5 cells/well and grown in low serum medium +/−5 μM RA and +/−100 ng/ml EGF for the times indicated and then counted. The results from three independent growth assays were averaged together and plotted. […]
NIH3T3 cells were grown in Dulbecco's modified Eagle's medium containing 10% calf serum and 100 units/ml penicillin. […] Protein concentrations were determined using the Bio-Rad DC protein assay. […]

SKBR3 cells [3] = experiment: Nuclear condensation or blebbing assay (doxorubicin-induced apoptosis); settings: SKBR3 cells stimulated with EGF (100 ng/ml) for 2 days prior to doxorubicin; FIG. 11B
Protocol: FIGS. 1A-D illustrate that the protective effect of EGF from doxorubicin-induced apoptosis is blocked by MDC in SKBR3 cells. In FIG. 11A, nearly confluent cultures of SKBR3 and MDAMB231 cells were placed in low serum medium. The following day, the cells were exposed to low serum medium +/−0.25 μM doxorubicin (Dox) for the times indicated and subsequently lysed. The presence of the activated form of caspase 3 (cleaved caspase 3) and actin (actin) in the cell extracts was assessed by Western blot analysis. In FIG. 11B, SKBR3 and MDAMB231 cells were maintained in low serum medium (0) or treated with 10 μM MDC (MDC) for 1.5 days. […] All cell cultures were then treated with +/−0.25 μM doxorubicin (Dox) for about 1 day and the cells were scored for programmed cell death as described in Example 13. […]
NIH3T3 cells were grown in Dulbecco's modified Eagle's medium containing 10% calf serum and 100 units/ml penicillin. […] Protein concentrations were determined using the Bio-Rad DC protein assay.
Cells were seeded in 6-well dishes and grown in complete medium for 2 days. […] The cultures were then incubated with fresh medium containing RA, EGF, and MDC and +/−0.2 μM doxorubicin for an additional 1.5 days and were fixed and stained with 4,6-diamidino-2-phenylindole (2 μg/ml) for viewing by fluorescence microscopy. […]

[4] = system: tissue transglutaminase (TG); experiment: TG GTP-binding activity by photoaffinity labeling with [α-32P]GTP in SKBR3 cell lysates; settings: SKBR3 cells, 5 μM RA or 100 ng/ml EGF for 2 days; FIG. 9A
Protocol: as §1
Photoaffinity labeling of TG was performed by incubating whole cell lysates with 5 μCi of [α-^32P]GTP in 50 mM Tris-HCl, pH 7.4, 2 mM EGTA, 1 mM DTT, 20% (w/v) glycerol, 100 mM NaCl, and 500 μM AMP-PNP for 10 minutes at room temperature. […]

[5] = system: tissue transglutaminase (TG); experiment: TG transamidation assay (incorporation of 5-(biotin-amido) pentylamine) in SKBR3 cell extracts; settings: SKBR3 cells, EGF compared with RA; FIG. 9A-B
Protocol: as §1
TG transamidation assays were performed as previously described with slight modifications. 15 μg of whole cell extracts were incubated in a buffer containing 2 mM 5-(biotin-amido) pentylamine, 40 mM CaCl2, and 40 mM DTT for 20 minutes. […]

[6] = system: tissue transglutaminase (TG); experiment: TG expression and activation in MDAMB231 cells (Western blot, GTP-binding, transamidation); settings: growth factor (EGF) stimulation, FIG. 9A-B
Protocol: as §1
Total cell lysates from each sample were combined with Laemmli sample buffer, boiled, and subjected to SDS-polyacrylamide gel electrophoresis (PAGE). […]

B1: EGF: epidermal growth factor, a known mitogen and survival factor (protein, UniProt P01133 23-1207, looked up)
Pro-epidermal growth factor: PQHWSCPEGTLAGNGNSTCVGPAPFLIFSHGNSIFRIDTEGTNYEQLVVDAGVSVIMDFHYNEKRIYWVDLERQLLQRVFLNGSRQERVCNIEKNVSGMAINWINEEVIWSNQQEGIITVTDMKGNNSHILLSALKYPANVAVDPVERFIFWSSEVAGSLYRADLDGVGVKALLETSEKITAVSLDVLDKRLFWIQYNREGSNSLICSCDYDGGSVHISKHPTQHNLFAMSLFGDRIFYSTWKMKTIWIANKHTGKDMVRINLHSSFVPLGELKVVHPLAQPKAEDDTWEPEQKLCKLRKGNCSSTVCGQDLQSHLCMCAEGYALSRDRKYCEDVNECAFWNHGCTLGCKNTPGSYYCTCPVGFVLLPDGKRCHQLVSCPRNVSECSHDCVLTSEGPLCFCPEGSVLERDGKTCSGCSSPDNGGCSQLCVPLSPVSWECDCFPGYDLQLDEKSCAASGPQPFLLFANSQDIRHMHFDGTDYGTLLSQQMGMVYALDHDPVENKIYFAHTALKWIERANMDGSQRERLIEEGVDVPEGLAVDWIGRRFYWTDRGKSLIGRSDLNGKRSKIITKENISQPRGIAVHPMAKRLFWTDTGINPRIESSSLQGLGRLVIASSDLIWPSGITIDFLTDKLYWCDAKQSVIEMANLDGSKRRRLTQNDVGHPFAVAVFEDYVWFSDWAMPSVMRVNKRTGKDRVRLQGSMLKPSSLVVVHPLAKPGADPCLYQNGGCEHICKKRLGTAWCSCREGFMKASDGKTCLALDGHQLLAGGEVDLKNQVTPLDILSKTRVSEDNITESQHMLVAEIMVSDQDDCAPVGCSMYARCISEGEDATCQCLKGFAGDGKLCSDIDECEMGVPVCPPASSKCINTEGGYVCRCSEGYQGDGIHCLDIDECQLGEHSCGENASCTNTEGGYTCMCAGRLSEPGLICPDSTPPPHLREDDHHYSVRNSDSECPLSHDGYCLHDGVCMYIEALDKYACNCVVGYIGERCQYRDLKWWELRHAGHGQQQKVIVVAVCVVVLVMLLLLSLWGAHYYRTQKLLSKNPKNPYEESSRDVRSRRPADTEDGMSSCPQPWFVVIKEHQDLKNGGQPVAGEDGQAADGSMQPTSWRQEPQLCGMGTEQGCWIPVSSDKGSCPQVMERSFHMPSYGTQTLEGGVEKPHSLLSANPLWQQRALDPPHQMELTQ
modifications: Pro-epidermal growth factor
growth of SKBR3 cells (SKBR3 cells [1]): did not impede the growth
TG expression [2]: up-regulated TG expression
reduction in the rate of apoptosis (SKBR3 cells [3]): 50%
TG GTP-binding activity [4]: increased GTP-binding
GTP-binding and enzymatic (transamidation) activity of TG [5]: more effective than RA
constitutive level of TG expression or activation [6]: did not alter the constitutive level of TG expression or activation
